Patent US20260207704A1, “STAPLED PEPTIDES AND METHODS THEREOF” (priority 2022, published 2026)
*1 amine or outer side, *2 acyl side, *3 side chain or, on linkers, in order; H or OH if unused. Bridges are numbered along the chain shown (N, C = ends). Primed or numbered codes have the meaning given here. [ ]: non-standard residue; d: D form. The star is where a group is joined. PyrS2(6) = (S)-3-amino-1-((pent-4-en-1-yloxy)carbonyl)pyrrolidine-3-carboxylic acid, stapled with another olefin-containing amino acid residue through the olefin group, O=C(OCCCC=[*:3])N1CC[C@@](N[*:1])(C(=O)[*:2])C1; B5(4) = 2-amino-2-(pent-4-en-1-yl)hept-6-enoic acid, stapled through each of its two olefin groups with other olefin-containing amino acid residues, O=C(C(CCCC=[*:3])(CCCC=[*:4])N[*:1])[*:2]; PyrS2″ = (S)-3-amino-1-((pent-4-en-1-yloxy)carbonyl)pyrrolidine-3-carboxylic acid (olefin stapling residue), C=CCCCOC(=O)N1CC[C@@](N[*:1])(C(=O)[*:2])C1; PyrS2 = (S)-3-amino-1-((pent-4-en-1-yloxy)carbonyl)pyrrolidine-3-carboxylic acid, olefin staple residue, C=CCCCOC(=O)N1CC[C@@](N[*:1])(C(=O)[*:2])C1; PyrS2(3) = (S)-3-amino-1-((pent-4-en-1-yloxy)carbonyl)pyrrolidine-3-carboxylic acid, olefin residue, C=CCCCOC(=O)N1CC[C@@](N[*:1])(C(=O)[*:2])C1; TriAzLys(4) = (S)-2-amino-5-(1H-1,2,3-triazol-1-yl)pentanoic acid, staple through triazole 4-position, O=C([C@H](CCCn1cc([*:3])nn1)N[*:1])[*:2]; TriAzLys = (S)-2-amino-5-(1H-1,2,3-triazol-1-yl)pentanoic acid, stapled through triazole 4-position, O=C([C@H](CCCn1cc([*:3])nn1)N[*:1])[*:2]; PyrS2(5) = (S)-3-amino-1-((pent-4-en-1-yloxy)carbonyl)pyrrolidine-3-carboxylic acid, C=CCCCOC(=O)N1CC[C@@](N[*:1])(C(=O)[*:2])C1; B5″ = 2-amino-2-(pent-4-en-1-yl)hept-6-enoic acid (bis-olefin stapling residue), C=CCCCC(CCCC=C)(N[*:1])C(=O)[*:2]; B5(5) = 2-amino-2-(pent-4-en-1-yl)hept-6-enoic acid (two olefin arms), C=CCCCC(CCCC=C)(N[*:1])C(=O)[*:2]; B5(3) = 2-amino-2-(pent-4-en-1-yl)hept-6-enoic acid, two olefin arms, C=CCCCC(CCCC=C)(N[*:1])C(=O)[*:2]; TriAzLys″ = azidolysine residue closed into triazole staple, O=C([C@H](CCCCn1cc([*:3])nn1)N[*:1])[*:2]; Me2Mal = 2-carboxy-2-methylpropanoyl group on the Lys side chain, CC(C)(C(=O)O)C(=O)*; 2F3MeF″ = aromatic residue, Cc1cccc(C[C@H](N[*:1])C(=O)[*:2])c1F; Phe(3-COOH) = N[C@@H](Cc1cccc(C(=O)O)c1)C(=O)O; 2F3MeF = Cc1cccc(C[C@H](N[*:1])C(=O)[*:2])c1F; Abu(4-yl) = O=C([C@H](CC[*:3])N[*:1])[*:2]; Phe(2-Cl) = N[C@@H](Cc1ccccc1Cl)C(=O)O; Bta = N[C@@H](Cc1csc2ccccc12)C(=O)O; Lys(iPr) = CC(C)NCCCC[C@H](N)C(=O)O; αAllylPro = C=CC[C@@]1(C(=O)O)CCCN1; tBuAla = CC(C)(C)C[C@H](N)C(=O)O; 3Thi = N[C@@H](Cc1ccsc1)C(=O)O; Cha = N[C@@H](CC1CCCCC1)C(=O)O; Suc = O=C(CCC(=O)[*:2])[*:1]; PyrS2(4) = not defined here; hSer = N[C@@H](CCO)C(=O)O; BztA″ = aromatic residue; Nle = CCCC[C@H](N)C(=O)O; Orn = NCCC[C@H](N)C(=O)O; TfeGA = not defined here; AsnR = not defined here; GlnR = not defined here; sAla = not defined here; PL3 = not defined here; B5 = not defined here; Aib = CC(C)(N)C(=O)O

B1: I-150 (peptide)
peptide: Ac-[αAllylPro]N[Cha][B5″]DT[Lys(iPr)]AF[GlnR][PyrS2″]F[Bta]K-NH2
modifications: bridge 10-14; reading uncertain; also: PL3-B5 and PyrS2 links not placed, printed as Ac-PL3-Asn-Cha-B5-Asp-Thr-iPrLys-Ala-Phe-GlnR*3-PyrS2-Phe-BztA-Lys*3-NH2
B2: I-51 (peptide)
peptide: Ac-[αAllylPro]D[tBuAla][B5(4)]D[Phe(3-COOH)]K(Suc)AFL[PyrS2(6)][Phe(2-Cl)][Bta]K-NH2
modifications: not fully specified (residue 6, bridges); printed as Ac-PL3-Asp-Npg-B5-Asp-3COOHF-[succinate]-Lys-Ala-Phe-Leu-PyrS2-2ClF-BztA-Lys-NH2
B3: I-18 (peptide)
peptide: Ac-[αAllylPro]D[tBuAla][B5″]DDAAF[TriAzLys][PyrS2″][3Thi][Bta][Abu(4-yl)]-NH2
modifications: triazole 10-14; also: PL3-B5 and PyrS2 links not placed
B4: I-107 (peptide)
peptide: Ac-[PL3]D[Cha][B5]D[Phe(3-COOH)]AAFK[PyrS2(4)][2F3MeF][Bta][GlnR]L-NH2
modifications: staple 1-4; bridge 10-14; not fully specified (residue 10); printed as Ac-PL3-Asp-Cha-B5-Asp-3COOHF-Ala-Ala-Phe-Lys*3-PyrS2-2F3MeF-BztA-GlnR*3-Leu-NH2; reading uncertain; also: PyrS2 tied into a staple, partner not placed
B5: I-116 (peptide)
peptide: Ac-[PL3][hSer][tBuAla][B5]D[TfeGA]AAFK[PyrS2(4)][2F3MeF][Bta][GlnR]A-NH2
modifications: staple 1-4; bridge 10-14; reading uncertain; also: PyrS2 tied into a staple, partner not placed
B6: I-118 (peptide)
peptide: Ac-[αAllylPro]D[tBuAla][B5″][hSer][TfeGA]AAFK[PyrS2″][2F3MeF][Bta][GlnR]A-NH2
modifications: bridge 10-14; not fully specified (bridges); reading uncertain; also: Lys*3 and GlnR*3 marked *3
B7: I-112 (peptide)
peptide: Ac-[PL3]D[tBuAla][B5]D[TfeGA]AAFK[PyrS2(4)][2F3MeF][Bta][GlnR]A-NH2
modifications: staple 1-4; bridge 10-14; reading uncertain; also: PyrS2 tied into a staple, partner not placed
B8: I-40 (peptide)
peptide: Ac-[αAllylPro]D[tBuAla][B5(5)]D[Phe(3-COOH)]AAF[AsnR][PyrS2(5)][3Thi][Bta][Orn]-NH2
modifications: bridge 10-14; reading uncertain; also: PL3/B5/PyrS2 staple links not placed, printed as Ac-PL3-Asp-Npg-B5-Asp-3COOHF-Ala-Ala-Phe-AsnR*3-PyrS2-3Thi-BztA-Orn*3-NH2
B9: I-47 (peptide)
peptide: Ac-[αAllylPro]D[tBuAla][B5(5)]D[Phe(3-COOH)]KAFL[PyrS2(5)][3Thi][Bta]K-NH2
modifications: not fully specified (residues 6, 7, bridges); printed as Ac-PL3-Asp-Npg-B5-Asp-3COOHF-[Me2Mal]-Lys-Ala-Phe-Leu-PyrS2-3Thi-BztA-Lys-NH2
B10: I-113 (peptide)
peptide: Ac-[PL3]N[tBuAla][B5]D[TfeGA]AAFK[PyrS2(4)][2F3MeF][Bta][GlnR]A-NH2
modifications: staple 1-4; bridge 10-14; reading uncertain; also: PyrS2 tied into a staple, partner not placed
B11: I-115 (peptide)
peptide: Ac-[PL3][hSer][tBuAla][B5]D[TfeGA]AAFK[PyrS2(4)][2F3MeF][Bta][GlnR]A-NH2
modifications: staple 1-4; bridge 10-14; reading uncertain; also: PyrS2 tied into a staple, partner not placed
B12: I-335 (peptide)
peptide: Ac-[αAllylPro]D[tBuAla][B5]D[Phe(3-COOH)][Aib]AF[TriAzLys(4)][PyrS2][3Thi][Bta][Abu(4-yl)]A-NH2
modifications: triazole 10-14; not fully specified (bridges); printed as Ac-PL3-Asp-Npg-B5-Asp-3COOHF-Aib-Ala-Phe-TriAzLys*3-PyrS2-3Thi-BztA-sAla*3-Ala-NH2; reading uncertain
B13: I-45 (peptide)
peptide: Ac-[αAllylPro]D[tBuAla][B5(5)]D[Phe(3-COOH)]KAFL[PyrS2(5)][3Thi][Bta]K-NH2
modifications: not fully specified (residue 6); printed as Ac-PL3-Asp-Npg-B5-Asp-3COOHF-[isophthalate]-Lys-Ala-Phe-Leu-PyrS2-3Thi-BztA-Lys-NH2; also: isophthalate unit next to Lys7, attachment not given here, PL3/B5/PyrS2 staple links not placed
B14: I-22 (peptide)
peptide: Ac-[PL3]D[tBuAla][B5(4)]D[Phe(3-COOH)]AAF[TriAzLys″][PyrS2″][2F3MeF][Bta][sAla]-NH2
modifications: triazole 10-14; not fully specified (bridges); printed as Ac-PL3-Asp-Npg-B5-Asp-3COOHF-Ala-Ala-Phe-TriAzLys*3-PyrS2-2F3MeF-BztA-sAla*3-NH2; reading uncertain
B15: I-2 (peptide)
peptide: Ac-[PL3]DL[B5(4)]DDAAF[dK][PyrS2″][3Thi][Bta][GlnR]-NH2
modifications: bridge 10-14; not fully specified (bridges); printed as Ac-PL3-Asp-Leu-B5-Asp-Asp-Ala-Ala-Phe-dLys*3-PyrS2-3Thi-BztA-GlnR*3-NH2; reading uncertain
B16: I-46 (peptide)
peptide: Ac-[αAllylPro]D[tBuAla][B5(5)]D[Phe(3-COOH)]KAFL[PyrS2(5)][3Thi][Bta]K-NH2
modifications: not fully specified (residues 6, 7, bridges); printed as Ac-PL3-Asp-Npg-B5-Asp-3COOHF-[succinate]-Lys-Ala-Phe-Leu-PyrS2-3Thi-BztA-Lys-NH2
B17: I-20 (peptide)
peptide: Ac-[PL3]D[tBuAla][B5(4)]D[Phe(3-COOH)]AAF[TriAzLys″][PyrS2″][3Thi][Bta][sAla]-NH2
modifications: triazole 10-14; not fully specified (bridges); printed as Ac-PL3-Asp-Npg-B5-Asp-3COOHF-Ala-Ala-Phe-TriAzLys*3-PyrS2-3Thi-BztA-sAla*3-NH2; reading uncertain
B18: I-52 (peptide)
peptide: Ac-[αAllylPro]D[tBuAla][B5(3)]D[Phe(3-COOH)]K(Me2Mal)AFL[PyrS2(3)][Phe(2-Cl)][Bta]K-NH2
modifications: not fully specified (residue 6, bridges); printed as Ac-PL3-Asp-Npg-B5-Asp-3COOHF-[Me2Mal]Lys-Ala-Phe-Leu-PyrS2-2ClF-BztA-Lys-NH2
B19: I-146 (peptide)
peptide: Ac-[αAllylPro][hSer][tBuAla][B5]D[Phe(3-COOH)][Nle]AFK[PyrS2″][2F3MeF″][BztA″][GlnR]LS-NH2
modifications: bridge 10-14; not fully specified (bridges); printed as Ac-PL3-Hse-Npg-B5-Asp-3COOHF-nLeu-Ala-Phe-Lys*3-PyrS2-2F3MeF-BztA-GlnR*3-Leu-Ser-NH2; reading uncertain; also: Lys10 and GlnR14 marked *3
B20: I-48 (peptide)
peptide: Ac-[αAllylPro]D[tBuAla][B5(4)]D[Phe(3-COOH)]KAFL[PyrS2(6)][3Thi][Bta]K-NH2
modifications: not fully specified (residues 6, 7, bridges); printed as Ac-PL3-Asp-Npg-B5-Asp-3COOHF-[diphenate]-Lys-Ala-Phe-Leu-PyrS2-3Thi-BztA-Lys-NH2
B21: I-145 (peptide)
peptide: Ac-[αAllylPro][hSer][tBuAla][B5]D[Phe(3-COOH)]AAFK[PyrS2(5)][2F3MeF″][BztA″][GlnR]LS-NH2
modifications: bridge 10-14; not fully specified (bridges); printed as Ac-PL3-Hse-Npg-B5-Asp-3COOHF-Ala-Ala-Phe-Lys*3-PyrS2-2F3MeF-BztA-GlnR*3-Leu-Ser-NH2; reading uncertain; also: Lys10 and GlnR14 marked *3
B22: I-119 (peptide)
peptide: Ac-[αAllylPro]D[tBuAla][B5″][hSer][TfeGA]AAFK[PyrS2″][2F3MeF][Bta][GlnR]A-NH2
modifications: bridge 10-14; not fully specified (bridges); reading uncertain; also: Lys*3 and GlnR*3 marked *3
B23: I-108 (peptide)
peptide: Ac-[PL3]D[tBuAla][B5]D[Phe(3-COOH)][tBuAla]AFK[PyrS2(4)][2F3MeF][Bta][GlnR]L-NH2
modifications: staple 1-4; bridge 10-14; not fully specified (residue 10); printed as Ac-PL3-Asp-Npg-B5-Asp-3COOHF-Npg-Ala-Phe-Lys*3-PyrS2-2F3MeF-BztA-GlnR*3-Leu-NH2; reading uncertain; also: PyrS2 tied into a staple, partner not placed

molecular target: beta-catenin (human); assay: fluorescence polarization
Sequence (B6V8E6 146-665 limits assumed): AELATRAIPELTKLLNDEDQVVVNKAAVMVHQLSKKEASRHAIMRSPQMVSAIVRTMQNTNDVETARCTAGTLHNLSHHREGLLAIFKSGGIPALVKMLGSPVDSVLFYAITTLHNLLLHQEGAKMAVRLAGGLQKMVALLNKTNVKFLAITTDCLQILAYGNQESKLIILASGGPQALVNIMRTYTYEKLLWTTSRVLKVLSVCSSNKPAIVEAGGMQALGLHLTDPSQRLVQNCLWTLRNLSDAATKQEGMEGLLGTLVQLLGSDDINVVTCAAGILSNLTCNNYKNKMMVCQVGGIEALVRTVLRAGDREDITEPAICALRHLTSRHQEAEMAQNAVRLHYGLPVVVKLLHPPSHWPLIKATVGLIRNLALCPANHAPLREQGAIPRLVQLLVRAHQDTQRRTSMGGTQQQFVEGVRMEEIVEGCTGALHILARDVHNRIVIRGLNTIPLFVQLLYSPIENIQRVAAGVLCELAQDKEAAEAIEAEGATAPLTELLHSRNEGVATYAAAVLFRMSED

| Binder | IC50 |
| --- | --- |
| B1 | > 1000 nM |
| B2 | < 50 nM |
| B3 | < 50 nM |
| B4 | < 50 nM |
| B5 | > 1000 nM |
| B6 | > 1000 nM |
| B7 | < 50 nM |
| B8 | > 1000 nM |
| B9 | < 50 nM |
| B10 | < 50 nM |
| B11 | > 1000 nM |
| B12 | < 50 nM |
| B13 | < 50 nM |
| B14 | < 50 nM |
| B15 | < 50 nM |
| B16 | < 50 nM |
| B17 | < 50 nM |
| B18 | < 50 nM |
| B19 | > 1000 nM |
| B20 | < 50 nM |
| B21 | > 1000 nM |
| B22 | > 1000 nM |
| B23 | < 50 nM |
